The target of test [1] is 微囊藻毒素抗体Fab片段 (microcystin antibody Fab fragment). Put plainly: ic-ELISA: free MC-LR (1000 ng/mL dilution) against coated MC-LR-OVA for the Fab. A general note: In an ELISA, binding on a coated surface is turned into a signal by an enzyme label.
Test [2] has as its target 微囊藻毒素抗体IgG in ascites (腹水).
Test [3] has as its target 微囊藻毒素抗体Fab片段 (microcystin antibody Fab fragment).

The text below walks through data of patent CN110028581A.

The term IC20 denotes the concentration at which the effect reaches the 20% level. A lower IC20 goes with an effect from little substance. As a reminder, the IC50 is the point on the concentration scale where inhibition reaches its midpoint. High values mean lower potency, low ones higher potency. By IC80 is commonly meant the point of the concentration-response curve where the effect stands at 80%. A low value points to an effect from little substance. As for 微囊藻毒素-LR (microcystin-LR) (peptide), the 抑制率 (inhibition rate) in test [1] is 99%. For the same substance, in test [2], the 抑制率 (inhibition rate) amounted to 91%. In test [3], this substance showed an IC20 of 0.15 ng/mL, an IC50 of 0.56 ng/mL and an IC80 of 2.1 ng/mL.
